Test results: US20130149248A1
Where two headings read alike, the source gives them in different places.

How the values were obtained:
[1] = target: αvβ6 on VB6 cells (human) (UniProt P06756); assay: cell-based or functional assay
[2] = target: T1, recombinant soluble αvβ6, P06756; assay: competitive sandwich ELISA; rsαvβ6 captured on anti-αv P2W7; competitor biotinylated fibronectin
T1 chain 1: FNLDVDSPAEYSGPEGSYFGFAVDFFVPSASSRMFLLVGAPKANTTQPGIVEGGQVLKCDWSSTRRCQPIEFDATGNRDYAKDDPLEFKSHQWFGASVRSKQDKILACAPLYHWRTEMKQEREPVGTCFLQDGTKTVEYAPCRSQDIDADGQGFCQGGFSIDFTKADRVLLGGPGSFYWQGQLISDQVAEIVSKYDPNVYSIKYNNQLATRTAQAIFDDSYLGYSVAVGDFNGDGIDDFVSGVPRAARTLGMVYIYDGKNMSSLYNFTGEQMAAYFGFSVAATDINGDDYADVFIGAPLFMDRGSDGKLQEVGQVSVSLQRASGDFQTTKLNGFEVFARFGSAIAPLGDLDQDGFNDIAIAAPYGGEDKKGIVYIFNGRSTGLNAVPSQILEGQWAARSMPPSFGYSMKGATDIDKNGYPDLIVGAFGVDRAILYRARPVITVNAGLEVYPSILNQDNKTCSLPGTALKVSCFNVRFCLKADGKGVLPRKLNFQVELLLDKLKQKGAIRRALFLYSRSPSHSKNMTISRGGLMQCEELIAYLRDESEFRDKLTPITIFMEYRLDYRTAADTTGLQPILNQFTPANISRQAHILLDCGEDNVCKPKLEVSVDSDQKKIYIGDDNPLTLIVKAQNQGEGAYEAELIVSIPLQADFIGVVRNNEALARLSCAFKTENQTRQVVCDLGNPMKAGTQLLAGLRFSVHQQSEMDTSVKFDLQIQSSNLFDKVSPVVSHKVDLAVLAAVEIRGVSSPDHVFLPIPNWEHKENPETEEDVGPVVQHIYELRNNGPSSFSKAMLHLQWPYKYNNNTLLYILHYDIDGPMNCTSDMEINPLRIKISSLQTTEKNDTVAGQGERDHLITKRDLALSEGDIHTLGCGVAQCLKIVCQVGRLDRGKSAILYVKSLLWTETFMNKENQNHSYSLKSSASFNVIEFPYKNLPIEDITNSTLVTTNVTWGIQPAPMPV
T1 chain 2: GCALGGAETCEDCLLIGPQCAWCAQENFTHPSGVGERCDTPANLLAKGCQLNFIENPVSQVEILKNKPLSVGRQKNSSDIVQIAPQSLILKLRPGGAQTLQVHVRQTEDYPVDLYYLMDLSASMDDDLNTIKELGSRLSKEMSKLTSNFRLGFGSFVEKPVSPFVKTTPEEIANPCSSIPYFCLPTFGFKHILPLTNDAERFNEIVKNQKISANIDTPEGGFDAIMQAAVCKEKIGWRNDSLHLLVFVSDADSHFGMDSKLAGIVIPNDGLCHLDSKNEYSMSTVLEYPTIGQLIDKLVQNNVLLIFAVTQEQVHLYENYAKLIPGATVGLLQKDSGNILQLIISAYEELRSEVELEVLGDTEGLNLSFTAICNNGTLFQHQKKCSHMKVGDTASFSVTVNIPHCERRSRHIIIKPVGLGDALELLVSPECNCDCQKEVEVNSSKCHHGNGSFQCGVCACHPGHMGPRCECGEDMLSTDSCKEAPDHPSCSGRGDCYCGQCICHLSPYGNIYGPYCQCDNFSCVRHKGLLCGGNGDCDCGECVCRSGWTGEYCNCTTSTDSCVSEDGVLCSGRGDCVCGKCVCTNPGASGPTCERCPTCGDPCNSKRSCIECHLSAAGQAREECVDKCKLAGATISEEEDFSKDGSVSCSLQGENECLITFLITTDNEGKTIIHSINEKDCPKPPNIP

[3] = target: T1, recombinant soluble αvβ6, P06756; assay: non-competitive binding ELISA; biotinylated peptide on immobilised rsαvβ6
[4] = target: T2, αvβ6 on 3T3β6.19 cells (mouse; human), P43406; assay: cell-based or functional assay
T2 chain 1: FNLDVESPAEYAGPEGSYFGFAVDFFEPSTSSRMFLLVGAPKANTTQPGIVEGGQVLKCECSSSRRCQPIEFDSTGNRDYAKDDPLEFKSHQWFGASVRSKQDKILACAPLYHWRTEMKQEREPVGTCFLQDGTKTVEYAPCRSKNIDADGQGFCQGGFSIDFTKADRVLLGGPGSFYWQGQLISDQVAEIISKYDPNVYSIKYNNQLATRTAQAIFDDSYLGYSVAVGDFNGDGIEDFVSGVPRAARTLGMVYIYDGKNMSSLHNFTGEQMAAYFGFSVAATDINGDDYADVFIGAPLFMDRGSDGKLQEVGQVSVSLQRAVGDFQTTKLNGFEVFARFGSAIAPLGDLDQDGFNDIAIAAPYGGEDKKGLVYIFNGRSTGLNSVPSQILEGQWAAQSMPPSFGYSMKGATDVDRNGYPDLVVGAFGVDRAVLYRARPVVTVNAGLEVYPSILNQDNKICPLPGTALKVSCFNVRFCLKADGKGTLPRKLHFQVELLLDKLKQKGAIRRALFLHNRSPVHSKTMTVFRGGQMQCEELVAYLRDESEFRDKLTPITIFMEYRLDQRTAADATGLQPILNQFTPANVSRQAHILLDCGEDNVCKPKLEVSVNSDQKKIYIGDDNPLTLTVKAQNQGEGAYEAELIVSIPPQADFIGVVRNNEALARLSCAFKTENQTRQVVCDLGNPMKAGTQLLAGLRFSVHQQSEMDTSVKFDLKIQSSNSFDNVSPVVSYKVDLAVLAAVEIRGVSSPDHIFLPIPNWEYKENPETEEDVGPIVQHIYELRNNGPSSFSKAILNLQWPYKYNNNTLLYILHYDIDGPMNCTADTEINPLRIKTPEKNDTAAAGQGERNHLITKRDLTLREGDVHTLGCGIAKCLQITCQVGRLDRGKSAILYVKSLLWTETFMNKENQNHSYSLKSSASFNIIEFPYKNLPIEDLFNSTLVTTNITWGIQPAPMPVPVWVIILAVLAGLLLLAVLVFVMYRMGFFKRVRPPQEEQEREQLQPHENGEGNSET
T2 chain 2: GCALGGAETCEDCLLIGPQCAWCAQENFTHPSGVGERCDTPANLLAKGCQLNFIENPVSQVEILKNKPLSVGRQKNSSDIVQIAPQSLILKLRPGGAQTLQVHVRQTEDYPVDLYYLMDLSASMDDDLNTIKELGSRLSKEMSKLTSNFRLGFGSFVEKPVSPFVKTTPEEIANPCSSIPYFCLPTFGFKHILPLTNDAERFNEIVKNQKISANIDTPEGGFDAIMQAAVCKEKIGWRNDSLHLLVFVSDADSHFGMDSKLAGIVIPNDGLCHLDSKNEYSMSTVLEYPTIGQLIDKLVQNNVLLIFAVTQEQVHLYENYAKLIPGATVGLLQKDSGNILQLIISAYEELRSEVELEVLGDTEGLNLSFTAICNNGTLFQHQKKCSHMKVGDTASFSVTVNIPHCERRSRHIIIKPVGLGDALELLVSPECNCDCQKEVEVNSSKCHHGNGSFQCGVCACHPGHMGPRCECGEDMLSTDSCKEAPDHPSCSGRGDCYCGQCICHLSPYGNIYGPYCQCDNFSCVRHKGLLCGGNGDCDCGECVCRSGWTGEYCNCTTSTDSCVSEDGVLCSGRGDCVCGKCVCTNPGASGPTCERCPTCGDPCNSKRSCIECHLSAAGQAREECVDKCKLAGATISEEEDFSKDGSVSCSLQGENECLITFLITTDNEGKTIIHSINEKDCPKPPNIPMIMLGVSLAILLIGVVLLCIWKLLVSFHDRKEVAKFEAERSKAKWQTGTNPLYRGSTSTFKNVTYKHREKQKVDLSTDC

[5] = target: T1, recombinant soluble αvβ6, P06756
[6] = target: T1, recombinant soluble αvβ6, P06756; assay: competitive (Screening) ELISA; rsαvβ6 captured on anti-αv P2W7; competitor biotinylated fibronectin

## A20FMDV1 (peptide)
[1]
  IC50, inhibition of adhesion of VB6 cells to LAP: 38.2 µM

## FTTGRRGDLATI (modifications not checked) [DD2]
[2]
  IC50: 0.0309 µM

## CYVPNLRGDLQVLAQKVAKC (modifications not checked) [B-DBD2]
[3]
  EC50: 0.0017 µM

## GFTTGRRGDLATIHGMNRPF (modifications not checked) [A20LAP]
[4]
  adhesion of 3T3β6.19 to LAP in the presence of 20 µM peptide, % of control cell adhesion (% of control cell adhesion): 32

## VPNLRGDLQVLA (modifications not checked) [DD19]
[5]
  IC50: 0.085 µM
[4]
  IC50 of inhibition of αvβ6-dependent binding of cells to LAP: 190 µM

## TGRRGDLATI (modifications not checked) [DD3]
[4]
  adhesion of 3T3β6.19 to LAP in the presence of 20 µM peptide, % of control cell adhesion (% of control cell adhesion): 79
[2]
  IC50: 0.0226 µM

## SAAARGDLEQLTSLLQNNVN (modifications not checked) [P_18INK]
[6]
  IC50: 0.023 µM

## RRGDLATIH (modifications not checked) [DD1]
[4]
  IC50 of inhibition of αvβ6-dependent binding of 3T3β6.19 to LAP: 216 µM
  adhesion of 3T3β6.19 to LAP in the presence of 20 µM peptide, % of control cell adhesion (% of control cell adhesion): 57
